# Results taken from US11795488B2, “Methods for enzymatic peptide ligation” (NANYANG TECHNOLOGICAL UNIVERSITY, priority 2016, dated 2023).
# B1: Cys247Ala: OaAEP1 Cys247Ala (Quicklase), Asx-specific peptide ligase having the amino acid sequence of SEQ ID NO:1 (protein, listed as Ovaloparmena affinis)
# chain: MVRYLAGAVLLLVVLSVAAAVSGARDGDYLHLPSEVSRFFRPQETNDDHGEDSVGTRWAVLIAGSKGYANYRHQAGVCHAYQILKRGGLKDENIVVFMYDDIAYNESNPRPGVIINSPHGSDVYAGVPKDYTGEEVNAKNFLAAILGNKSAITGGSGKVVDSGPNDHIFIYYTDHGAAGVIGMPSKPYLYADELNDALKKKHASGTYKSLVFYLEACESGSMFEGILPEDLNIYALTSTNTTESSWAYYCPAQENPPPPEYNVCLGDLFSVAWLEDSDVQNSWYETLNQQYHHVDKRISHASHATQYGNLKLGEEGLFVYMGSNPANDNYTSLDGNALTPSSIVVNQRDADLLHLWEKFRKAPEGSARKEEAQTQIFKAMSHRVHIDSSIKLIGKLLFGIEKCTEILNAVRPAGQPLVDDWACLRSLVGTFETHCGSLSEYGMRHTRTIANICNAGISEEQMAEAASQACASIP
# Assays:
# RAW cell = experiment: Cell surface labeling with fluorescently tagged SNAP protein; format: cell-based, human; details: 10 μM SNAP-NGL, 0.1 μM Quicklase, 30 minutes˜1 hour
# Protocol: (§1) (b) Fluorecently tagged SNAP (New England Biolabs) protein was conjugated to the intrinsic cellular surface proteins of two different cell lines, RAW cell ([…]) and HEK293T (human epithelial cell line). 10 μM modified SNAP protein (with additional C-terminal NGL residues, lane 1 sample) with or without (lane 2 and lane 5 samples) coincubation of 0.1 μM Quicklase were added to cell culture, pre-washed with PBS buffer. After 30 minutes˜1 hour incubation, cells were rinsed with additional PBS buffer (lane 3 and lane 6 were first wash samples), two times. The remaining cell was harvested and lysed with SDS loading buffer (lane 4 and 7 samples). All samples were examined using SDS-PAGE, and only the covalently fluorescently tagged SNAP protein carried the signal on the gel, which were shown as dark bands in (b). […] (c) Surface modified RAW cells were examined using a fluorescent microscope, bright spots on the cellular surface indicated successful surface labelling of intrinsic cellular membrane.
# (§2) 0.1 to 1 μM of OaAEP1 Cys247Ala was added to cellular culture in standard cell culture conditions. 1-20 μM labeling protein tags were added to the reaction afterwards, and incubated for 30-45 mins at 37° C. and standard culturing condition, before both excess enzymes and labelling tags were washed away. […]
# HEK293T = experiment: as above; format: cell-based, human; details: 10 μM SNAP-NGL, 0.1 μM Quicklase, 30 minutes˜1 hour
# Protocol: as §1, §2
# [1] = system: ubiquitin and SNAP tag protein; experiment: Ligation of two well-folded proteins; format: biochemical
# Protocol: (§3) (a) Fluorescence detection using 02 benzylcytosine-Alexa647 of the SNAP protein and SDS PAGE analysis with Comassie blue staining detection of the protein substrate and ligated products. The reaction is schematically depicted as inset. Cys247Ala ligates well folded protein well. […] (b) As little as 30 nM Cys247Ala catalyze ligation of 100 μM Ubiquitin and 500 μM biotin labelled peptide efficiently in 30 min, at room temperature, in pH 7.4 PBS buffer.
# (§4) The ability of Cys247Ala to ligate ubiquitin with a peptide was first tested. The three residues“Asn-Gly-Leu” were added to the C-terminus of ubiquitin to make it recognizable by Cys247Ala. Another peptide having N-terminal residues GlyLeu was used as the add-on component. At a protein: peptide molar ratio of 1:5, Cys247Ala catalyzed the ligation of more than 90% ubiquitin with the peptide within 10 min (FIG. 6). An amount of 30 nM of Cys247Ala was enough for the reaction compared to 10-30 μM of sortase A typically required to perform productive ligations. […] Ubiquitin having the same “Asn-Gly-Leu” modification at its C-terminal end and a N-terminal modified SNAP (NEB) tag protein were used as substrates. […] Protein ligation can be performed within minutes at neutral pH and at room temperature.
# [2] = system: ubiquitin with C-terminal Asn-Gly-Leu and peptide having N-terminal residues GlyLeu; experiment: Ligation of ubiquitin with a peptide; format: biochemical
# Protocol: as §3, §4
# peptide substrate = experiment: Comparison of cyclization efficiency of gate-keeper Cys247 mutants (MALDI-TOF MS); format: biochemical
# Protocol: (§5) Native and modified amino acids were purchased from Sigma-Aldrich (USA). All peptides used in this manuscript were synthesized in-house using the solid-phase method and HPLC purified. Cyclization assays were performed in 50-μl reaction mixtures containing 20 mM phosphate buffer, ligases (5 to 700 nM) and peptide substrates (10 to 300 μM). Each reaction was performed in triplicate at 37° C. and quenched by adding 5 μl of 1 M HCl solution. The peptides were separated by using a reversed-phase C18 analytical column (150×2.1 mm, Vydac) with a linear gradient from 10% to 50% acetonitrile over 15 min on a Nexera UHPLC system (Shimadzu). For kinetic analysis, the concentrations of WT OaAEP1, mutant OaAEP1, and butelase 1 were fixed at 700 nM, 50 nM, and 20 nM, respectively. The cyclization velocities were calculated by converting the HPLC-peak areas of remained linear precursors or the cyclized products into concentrations. The identity of each HPLC peak was analyzed by MALDI-TOF MS (ABI 4800 MALDI TOF/TOF). The velocities were input into GraphPad Prism (GraphPad Software, San Diego) to obtain the Michaelis-Menten curve and the kinetic parameters (kcat and Km). Comparison for the cyclization efficiency of various OaAEP1 mutants were performed in a volume of 20 μl of the reaction mixture and analyzed by MALDI-TOF MS after 10 mins or 1 hour ligation reaction.
# The pre-ligation conformation of OaAEP1 captured in the present structure was then analyzed to identify several key features that could differentiate an AEP protease from an AEP-like ligase. […] In contrast to AEP proteases, the surface of OaAEP1 facing the catalytic Cys217 appears to be more widely open. Three cysteine residues (Cys247, Cys250, Cys264) are aligned along a shallow cleft at the surface of the enzyme (FIGS. 3C and 3E). Unlike the surface of AEP proteases that contains several bulges, both butelase 1 (using a homology model based on OaAEP1b) and OaAEP1 have residues with smaller side-chains along this patch. A disulfide bond is formed between Cys250 and Cys264, which are conserved in AEP-like ligases butelase 1 and OaAEP1b. This covalent bond is likely to stabilize the local structure and provide an adequate surface allowing the approach of an N-terminal amine incoming group. Conversely, the corresponding surface patch of AEP proteases (PDB: 4AWA) is lined with residues having bulky side-chains like Tyr (FIG. 3E) blocking this channel. It was therefore hypothesized that residue Cys247 which is located at the extremity of the substrate channel is likely to function as a final nucleophile filter (or “gate-keeper”), allowing attack from the N-terminal amine to complete the ligation reaction. […]
# [3] = system: peptide substrate "GLPVSTKPVATRNGL" (SEQ ID NO: 18); experiment: Peptide cyclization assay, kinetic analysis (HPLC/MS); format: biochemical
# Protocol: as §5
# The peptide cyclization activity of mature OaAEP1 was then analyzed using MS and the peptide substrate “[…]” (SEQ ID NO: 18) (FIG. 5A). The turn-over rate (kcat) for OaAEP1 is 0.052 s^−1, a value in good agreement with the previous report (Harris, K. S., et al., Nat Commun, 2015. 6: p. 10199). Likewise, the cyclization activity of butelase 1 extracted from plant was measured using the 15 residues peptide “[…]” (SEQ ID NO: 19) (FIG. 5A) leading to a kcat about 90 times faster than OaAEP1 b.
molecule,measurement,setting,value
B1,conjugation of SNAP protein to intrinsic cellular surface proteins,RAW cell,significant amount of intrinsic proteins in RAW and HEK283T cells were conjugated with SNAP protein
same,conjugation of SNAP protein to intrinsic cellular surface proteins,HEK293T,significant amount of intrinsic proteins in RAW and HEK283T cells were conjugated with SNAP protein
same,protein ligation activity (control ligation experiments),[1],protein ligation activity could only be observed in the presence of the Cys247Ala protein
same,individual substrate proteins ligated into a single polypeptide product,"[1]; 5 μM SNAP tag protein, 8 μM ubiquitin, 100 nM enzyme",more than 60%
same,ligation of SNAP tag protein with Ubiquitin,"[1]; 5 μM SNAP tag, 100 nM Cys247Ala, 4000 nM wild type OaAEP1b",efficiently ligated
same,enzyme concentration that catalyzes ligation efficiently,"[2]; 100 μM Ubiquitin, 500 μM biotin labelled peptide, 30 min, room temperature, pH 7.4 PBS",30 nM
same,ubiquitin ligated with the peptide,"[2]; protein: peptide molar ratio 1:5, within 10 min",more than 90%
same,amount of enzyme enough for the reaction,[2]; ubiquitin-peptide ligation,30 nM
same,alternative reaction when N-terminal amine is not available,peptide substrate; N-terminal amine group acetylated,side chain ligation is more preferred
same,ligase activity compared to WT OaAEP1,peptide substrate; gate-keeper position 247 mutants,significantly improved enzymatic properties
same,kcat relative to WT OaAEP1b,[3],approximately 160 times
same,peptide ligase catalytic activity relative to wild type OaAEP1,[3],~160 times
